Data on 6 molecules can be found in patent US12679878B2, “CRF2 receptor agonists and their use in therapy” (SANOFI, priority 2020, dated 2026).

Starred links: 1 amine or outer side, 2 acyl side, 3 side chain; linkers in the order of their positions; H or OH if unused. Non-standard residues stand in square brackets, D forms with d. Groups on a side chain read outwards from the residue. No end group written: not given here. *: point of attachment. C16 diacid = O=C(O)CCCCCCCCCCCCCCC(=O)*; γGlu = O=C(O)[C@H](CCC(=O)[*:2])N[*:1]; Palmitoyl = CCCCCCCCCCCCCCCC(=O)*; AEEA = NCCOCCOCC(=O)O; Aib = CC(C)(N)C(=O)O

For experiment [1], the target named is human corticotropin-releasing factor 2α (CRF2α receptor) (human), Q13324. As to the kind of experiment: cell-based or functional assay.
The target in experiment [2] is T1, CRF1R receptor (anti-target) (UniProt P34998 24-415, limits assumed).
T1 sequence (looked up): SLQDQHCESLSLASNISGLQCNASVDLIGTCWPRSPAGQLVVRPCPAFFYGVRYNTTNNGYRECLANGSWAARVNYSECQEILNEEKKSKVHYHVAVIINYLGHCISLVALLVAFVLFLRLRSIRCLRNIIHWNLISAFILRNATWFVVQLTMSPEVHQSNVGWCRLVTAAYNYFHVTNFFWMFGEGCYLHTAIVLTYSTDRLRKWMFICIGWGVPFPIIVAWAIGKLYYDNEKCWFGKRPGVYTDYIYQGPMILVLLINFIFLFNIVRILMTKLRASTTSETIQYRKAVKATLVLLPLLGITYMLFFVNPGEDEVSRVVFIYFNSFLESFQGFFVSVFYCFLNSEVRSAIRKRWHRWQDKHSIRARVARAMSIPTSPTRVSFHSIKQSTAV
The experiment can be described thus: cell-based or functional assay.

Chain of human corticotropin-releasing factor 2α (CRF2α receptor) (human), Q13324 (Q13324 20-411): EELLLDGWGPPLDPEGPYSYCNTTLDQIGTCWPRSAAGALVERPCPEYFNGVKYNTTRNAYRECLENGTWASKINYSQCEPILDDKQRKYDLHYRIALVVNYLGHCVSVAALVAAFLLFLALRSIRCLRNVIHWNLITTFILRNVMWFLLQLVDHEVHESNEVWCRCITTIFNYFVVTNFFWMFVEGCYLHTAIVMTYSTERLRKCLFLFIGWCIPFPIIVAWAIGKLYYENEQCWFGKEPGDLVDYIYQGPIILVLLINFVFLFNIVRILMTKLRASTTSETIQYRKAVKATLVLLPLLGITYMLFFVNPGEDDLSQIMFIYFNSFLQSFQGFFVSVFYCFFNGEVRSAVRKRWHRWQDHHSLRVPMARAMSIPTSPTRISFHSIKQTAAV

B1: peptide of SEQ ID NO: 211 (peptide)
peptide: IVLSLD[dV]PIKLK([AEEA-AEEA-γGlu-γGlu-Palmitoyl])QILLKQERQKK[Aib]RQKAEKNKQILAQV-NH2
modifications: N-terminus assumed
SMILES: CCCCCCCCCCCCCCCC(=O)N[C@@H](CCC(=O)N[C@@H](CCC(=O)NCCOCCOCC(=O)NCCOCCOCC(=O)NCCCC[C@H](NC(=O)[C@H](CC(C)C)NC(=O)[C@H](CCCCN)NC(=O)[C@@H](NC(=O)[C@@H]1CCCN1C(=O)[C@H](NC(=O)[C@H](CC(=O)O)NC(=O)[C@H](CC(C)C)NC(=O)[C@H](CO)NC(=O)[C@H](CC(C)C)NC(=O)[C@@H](NC(=O)[C@@H](N)[C@@H](C)CC)C(C)C)C(C)C)[C@@H](C)CC)C(=O)N[C@@H](CCC(N)=O)C(=O)N[C@H](C(=O)N[C@@H](CC(C)C)C(=O)N[C@@H](CC(C)C)C(=O)N[C@@H](CCCCN)C(=O)N[C@@H](CCC(N)=O)C(=O)N[C@@H](CCC(=O)O)C(=O)N[C@@H](CCCNC(=N)N)C(=O)N[C@@H](CCC(N)=O)C(=O)N[C@@H](CCCCN)C(=O)N[C@@H](CCCCN)C(=O)NC(C)(C)C(=O)N[C@@H](CCCNC(=N)N)C(=O)N[C@@H](CCC(N)=O)C(=O)N[C@@H](CCCCN)C(=O)N[C@@H](C)C(=O)N[C@@H](CCC(=O)O)C(=O)N[C@@H](CCCCN)C(=O)N[C@@H](CC(N)=O)C(=O)N[C@@H](CCCCN)C(=O)N[C@@H](CCC(N)=O)C(=O)N[C@H](C(=O)N[C@@H](CC(C)C)C(=O)N[C@@H](C)C(=O)N[C@@H](CCC(N)=O)C(=O)N[C@H](C(N)=O)C(C)C)[C@@H](C)CC)[C@@H](C)CC)C(=O)O)C(=O)O
Molecule B1 gave an EC50 [nM], 0% HSA (cAMP, HTRF) in experiment [1] of 0.94 nM.

B2: peptide of SEQ ID NO: 216 (peptide)
peptide: IVLSLD[dV]PIGLK([AEEA-AEEA-γGlu-Palmitoyl])QILLKQERQKK[Aib]REQAETNKQILAQV-NH2
modifications: N-terminus assumed
SMILES: CCCCCCCCCCCCCCCC(=O)N[C@@H](CCC(=O)NCCOCCOCC(=O)NCCOCCOCC(=O)NCCCC[C@H](NC(=O)[C@H](CC(C)C)NC(=O)CNC(=O)[C@@H](NC(=O)[C@@H]1CCCN1C(=O)[C@H](NC(=O)[C@H](CC(=O)O)NC(=O)[C@H](CC(C)C)NC(=O)[C@H](CO)NC(=O)[C@H](CC(C)C)NC(=O)[C@@H](NC(=O)[C@@H](N)[C@@H](C)CC)C(C)C)C(C)C)[C@@H](C)CC)C(=O)N[C@@H](CCC(N)=O)C(=O)N[C@H](C(=O)N[C@@H](CC(C)C)C(=O)N[C@@H](CC(C)C)C(=O)N[C@@H](CCCCN)C(=O)N[C@@H](CCC(N)=O)C(=O)N[C@@H](CCC(=O)O)C(=O)N[C@@H](CCCNC(=N)N)C(=O)N[C@@H](CCC(N)=O)C(=O)N[C@@H](CCCCN)C(=O)N[C@@H](CCCCN)C(=O)NC(C)(C)C(=O)N[C@@H](CCCNC(=N)N)C(=O)N[C@@H](CCC(=O)O)C(=O)N[C@@H](CCC(N)=O)C(=O)N[C@@H](C)C(=O)N[C@@H](CCC(=O)O)C(=O)N[C@H](C(=O)N[C@@H](CC(N)=O)C(=O)N[C@@H](CCCCN)C(=O)N[C@@H](CCC(N)=O)C(=O)N[C@H](C(=O)N[C@@H](CC(C)C)C(=O)N[C@@H](C)C(=O)N[C@@H](CCC(N)=O)C(=O)N[C@H](C(N)=O)C(C)C)[C@@H](C)CC)[C@@H](C)O)[C@@H](C)CC)C(=O)O
On to B2, for which, in experiment [1], the EC50 [nM], 0% HSA (cAMP, HTRF) came out at 0.19 nM.

B3: peptide of SEQ ID NO: 213 (peptide)
peptide: IVLSLD[dV]PIKLK([γGlu-Palmitoyl])QILLKQERQKKQREKAEKNKQILAQV-NH2
modifications: N-terminus assumed
SMILES: CCCCCCCCCCCCCCCC(=O)N[C@@H](CCC(=O)NCCCC[C@H](NC(=O)[C@H](CC(C)C)NC(=O)[C@H](CCCCN)NC(=O)[C@@H](NC(=O)[C@@H]1CCCN1C(=O)[C@H](NC(=O)[C@H](CC(=O)O)NC(=O)[C@H](CC(C)C)NC(=O)[C@H](CO)NC(=O)[C@H](CC(C)C)NC(=O)[C@@H](NC(=O)[C@@H](N)[C@@H](C)CC)C(C)C)C(C)C)[C@@H](C)CC)C(=O)N[C@@H](CCC(N)=O)C(=O)N[C@H](C(=O)N[C@@H](CC(C)C)C(=O)N[C@@H](CC(C)C)C(=O)N[C@@H](CCCCN)C(=O)N[C@@H](CCC(N)=O)C(=O)N[C@@H](CCC(=O)O)C(=O)N[C@@H](CCCNC(=N)N)C(=O)N[C@@H](CCC(N)=O)C(=O)N[C@@H](CCCCN)C(=O)N[C@@H](CCCCN)C(=O)N[C@@H](CCC(N)=O)C(=O)N[C@@H](CCCNC(=N)N)C(=O)N[C@@H](CCC(=O)O)C(=O)N[C@@H](CCCCN)C(=O)N[C@@H](C)C(=O)N[C@@H](CCC(=O)O)C(=O)N[C@@H](CCCCN)C(=O)N[C@@H](CC(N)=O)C(=O)N[C@@H](CCCCN)C(=O)N[C@@H](CCC(N)=O)C(=O)N[C@H](C(=O)N[C@@H](CC(C)C)C(=O)N[C@@H](C)C(=O)N[C@@H](CCC(N)=O)C(=O)N[C@H](C(N)=O)C(C)C)[C@@H](C)CC)[C@@H](C)CC)C(=O)O
B3: the EC50 [nM], 0% HSA (cAMP, HTRF) in experiment [1] stood at 4.48 nM.

B4: peptide of SEQ ID NO: 215 (peptide)
peptide: IVLSLD[dV]PIGLK([γGlu-Palmitoyl])QILLKQERQKK[Aib]REQAETNKQILAQV-NH2
modifications: N-terminus assumed
SMILES: CCCCCCCCCCCCCCCC(=O)N[C@@H](CCC(=O)NCCCC[C@H](NC(=O)[C@H](CC(C)C)NC(=O)CNC(=O)[C@@H](NC(=O)[C@@H]1CCCN1C(=O)[C@H](NC(=O)[C@H](CC(=O)O)NC(=O)[C@H](CC(C)C)NC(=O)[C@H](CO)NC(=O)[C@H](CC(C)C)NC(=O)[C@@H](NC(=O)[C@@H](N)[C@@H](C)CC)C(C)C)C(C)C)[C@@H](C)CC)C(=O)N[C@@H](CCC(N)=O)C(=O)N[C@H](C(=O)N[C@@H](CC(C)C)C(=O)N[C@@H](CC(C)C)C(=O)N[C@@H](CCCCN)C(=O)N[C@@H](CCC(N)=O)C(=O)N[C@@H](CCC(=O)O)C(=O)N[C@@H](CCCNC(=N)N)C(=O)N[C@@H](CCC(N)=O)C(=O)N[C@@H](CCCCN)C(=O)N[C@@H](CCCCN)C(=O)NC(C)(C)C(=O)N[C@@H](CCCNC(=N)N)C(=O)N[C@@H](CCC(=O)O)C(=O)N[C@@H](CCC(N)=O)C(=O)N[C@@H](C)C(=O)N[C@@H](CCC(=O)O)C(=O)N[C@H](C(=O)N[C@@H](CC(N)=O)C(=O)N[C@@H](CCCCN)C(=O)N[C@@H](CCC(N)=O)C(=O)N[C@H](C(=O)N[C@@H](CC(C)C)C(=O)N[C@@H](C)C(=O)N[C@@H](CCC(N)=O)C(=O)N[C@H](C(N)=O)C(C)C)[C@@H](C)CC)[C@@H](C)O)[C@@H](C)CC)C(=O)O
For the molecule B4, the EC50 [nM], 0% HSA (cAMP, HTRF) in experiment [1] is 0.15 nM.

B5: peptide of SEQ ID NO: 191 (peptide)
peptide: IVLSLD[dV]PIKLK([γGlu-C16 diacid])QILLKQERQKKQREKAEKNKQILAQV-NH2
modifications: N-terminus assumed
SMILES: CC[C@H](C)[C@H](N)C(=O)N[C@H](C(=O)N[C@@H](CC(C)C)C(=O)N[C@@H](CO)C(=O)N[C@@H](CC(C)C)C(=O)N[C@@H](CC(=O)O)C(=O)N[C@@H](C(=O)N1CCC[C@H]1C(=O)N[C@H](C(=O)N[C@@H](CCCCN)C(=O)N[C@@H](CC(C)C)C(=O)N[C@@H](CCCCNC(=O)CC[C@H](NC(=O)CCCCCCCCCCCCCCC(=O)O)C(=O)O)C(=O)N[C@@H](CCC(N)=O)C(=O)N[C@H](C(=O)N[C@@H](CC(C)C)C(=O)N[C@@H](CC(C)C)C(=O)N[C@@H](CCCCN)C(=O)N[C@@H](CCC(N)=O)C(=O)N[C@@H](CCC(=O)O)C(=O)N[C@@H](CCCNC(=N)N)C(=O)N[C@@H](CCC(N)=O)C(=O)N[C@@H](CCCCN)C(=O)N[C@@H](CCCCN)C(=O)N[C@@H](CCC(N)=O)C(=O)N[C@@H](CCCNC(=N)N)C(=O)N[C@@H](CCC(=O)O)C(=O)N[C@@H](CCCCN)C(=O)N[C@@H](C)C(=O)N[C@@H](CCC(=O)O)C(=O)N[C@@H](CCCCN)C(=O)N[C@@H](CC(N)=O)C(=O)N[C@@H](CCCCN)C(=O)N[C@@H](CCC(N)=O)C(=O)N[C@H](C(=O)N[C@@H](CC(C)C)C(=O)N[C@@H](C)C(=O)N[C@@H](CCC(N)=O)C(=O)N[C@H](C(N)=O)C(C)C)[C@@H](C)CC)[C@@H](C)CC)[C@@H](C)CC)C(C)C)C(C)C
For the molecule B5, the EC50 [nM], 0% HSA (cAMP, HTRF) in experiment [1] was determined as 2.68 nM. Further, in experiment [2], the “EC50 [nM] 0% HSA (cAMP, HTRF)” value was over 100 nM and the “Emax (%) (100% = Sauvagine at 100 nM)” value amounted to 12.5%.

B6: peptide of SEQ ID NO: 217 (peptide)
peptide: IVLSLD[dV]PIGLK([AEEA-AEEA-γGlu-γGlu-Palmitoyl])QILLKQERQKK[Aib]REQAETNKQILAQV-NH2
modifications: N-terminus assumed
SMILES: CCCCCCCCCCCCCCCC(=O)N[C@@H](CCC(=O)N[C@@H](CCC(=O)NCCOCCOCC(=O)NCCOCCOCC(=O)NCCCC[C@H](NC(=O)[C@H](CC(C)C)NC(=O)CNC(=O)[C@@H](NC(=O)[C@@H]1CCCN1C(=O)[C@H](NC(=O)[C@H](CC(=O)O)NC(=O)[C@H](CC(C)C)NC(=O)[C@H](CO)NC(=O)[C@H](CC(C)C)NC(=O)[C@@H](NC(=O)[C@@H](N)[C@@H](C)CC)C(C)C)C(C)C)[C@@H](C)CC)C(=O)N[C@@H](CCC(N)=O)C(=O)N[C@H](C(=O)N[C@@H](CC(C)C)C(=O)N[C@@H](CC(C)C)C(=O)N[C@@H](CCCCN)C(=O)N[C@@H](CCC(N)=O)C(=O)N[C@@H](CCC(=O)O)C(=O)N[C@@H](CCCNC(=N)N)C(=O)N[C@@H](CCC(N)=O)C(=O)N[C@@H](CCCCN)C(=O)N[C@@H](CCCCN)C(=O)NC(C)(C)C(=O)N[C@@H](CCCNC(=N)N)C(=O)N[C@@H](CCC(=O)O)C(=O)N[C@@H](CCC(N)=O)C(=O)N[C@@H](C)C(=O)N[C@@H](CCC(=O)O)C(=O)N[C@H](C(=O)N[C@@H](CC(N)=O)C(=O)N[C@@H](CCCCN)C(=O)N[C@@H](CCC(N)=O)C(=O)N[C@H](C(=O)N[C@@H](CC(C)C)C(=O)N[C@@H](C)C(=O)N[C@@H](CCC(N)=O)C(=O)N[C@H](C(N)=O)C(C)C)[C@@H](C)CC)[C@@H](C)O)[C@@H](C)CC)C(=O)O)C(=O)O
Molecule B6 gave an EC50 [nM], 0% HSA (cAMP, HTRF) in experiment [1] of 0.16 nM.
